biological target: GST-SBP-SLBP (stem-loop binding protein) (Homo sapiens, UniProt Q14493 1-270); assay: targeted RNA Bind-n-Seq; RBNS binding buffer: 25 mM Tris pH 7.5, 150 mM KCl, 3 mM MgCl2, 0.1% Tween, 0.5 mg/mL BSA, 1 mM DTT; 27 nM protein, 750 pM RNA pool; temperature not stated; high values mean tight binding; settings: protein: recombinant; tags: N-terminal GST and SBP (pGEX6P1-SBP)
How it was run: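 A designed RNA oligo pool, transcribed with T7, was present at 750 pM and incubated in RBNS binding buffer with 27 nM of GST-SBP-tagged protein that had been expressed in Rosetta(DE3) pLysS E. coli and purified with glutathione. After reverse transcription with a 10-nucleotide barcoded primer and PCR, the bound RNA was sequenced as 200-cycle paired-end reads on a MiSeq. Each sequence's binding signal is the DEseq binary-logarithm fold change in read counts, computed after joining reads with FLASH, aligning with HISAT2 and collapsing by barcode.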

Row | Binder | binding signal
1 | consensus (structured_RNA) RNA: GGUCACGUCUCAAUCAACUCCCAAAGGCCCUUCUCAGGGCCACCCAUCAACAGCUCGCAGUCAAG | 3.69 ± 0.158 log2 fold change
2 | consensus (structured_RNA) RNA: GGUCACGUCUCAAUCAACUCCCAAAGGUUCUUUUUAGAGCCACCCAUCAACAGCUCGCAGUCAAG | 2.54 ± 0.128 log2 fold change
3 | consensus (structured_RNA) RNA: GGUCACGUCUCAAUCAACUCCCAAAGGUUCUUCUCAGGACCACCCAUCAACAGCUCGCAGUCAAG | 2.79 ± 0.125 log2 fold change
4 | consensus (structured_RNA) RNA: GGUCACGUCUCAAUCAACUCCCAAAGGCUUUUCUCAAGGCCACCCAUCAACAGCUCGCAGUCAAG | 2.96 ± 0.136 log2 fold change
5 | consensus (structured_RNA) RNA: GGUCACGUCUCAAUCAACUCCCAAAGGUCCUUUUUAGGGCCACCCAUCAACAGCUCGCAGUCAAG | 2.9 ± 0.135 log2 fold change
6 | consensus (structured_RNA) RNA: GGUCACGUCUCAAUCAACUCCCAAAGGUUUUUCUUAAAACCACCCAUCAACAGCUCGCAGUCAAG | 2.59 ± 0.138 log2 fold change
7 | consensus (structured_RNA) RNA: GGUCACGUCUCAAUCAACUCCCAAAGGUCUUUCUCAAGGCCACCCAUCAACAGCUCGCAGUCAAG | 2.87 ± 0.126 log2 fold change
8 | consensus (structured_RNA) RNA: GGUCACGUCUCAAUCAACUCCCAAAGGUCUUUCUUAAGGCCACCCAUCAACAGCUCGCAGUCAAG | 2.73 ± 0.134 log2 fold change
9 | consensus (structured_RNA) RNA: GGUCACGUCUCAAUCAACUCCCAAAGGCUUUUCUGAAAGCCACCCAUCAACAGCUCGCAGUCAAG | 2.53 ± 0.134 log2 fold change
10 | consensus (structured_RNA) RNA: GGUCACGUCUCAAUCAACUCCCAAAGGUUUUUUUCAAAGCCACCCAUCAACAGCUCGCAGUCAAG | 2.7 ± 0.146 log2 fold change
11 | consensus (structured_RNA) RNA: GGUCACGUCUCAAUCAACUCCCAAAGGUCUUUUUUAAGGCCACCCAUCAACAGCUCGCAGUCAAG | 2.89 ± 0.126 log2 fold change
12 | consensus (structured_RNA) RNA: GGUCACGUCUCAAUCAACUCCCAAAGGUCUUUCUGAAGACCACCCAUCAACAGCUCGCAGUCAAG | 2.75 ± 0.139 log2 fold change
13 | consensus (structured_RNA) RNA: GGUCACGUCUCAAUCAACUCCCAAAGGCCCUUCUAAGGGCCACCCAUCAACAGCUCGCAGUCAAG | 3.65 ± 0.165 log2 fold change
14 | consensus (structured_RNA) RNA: GGUCACGUCUCAAUCAACUCCCAAAGGCUCUUUUUAGGGCCACCCAUCAACAGCUCGCAGUCAAG | 2.74 ± 0.145 log2 fold change
15 | consensus (structured_RNA) RNA: GGUCACGUCUCAAUCAACUCCCAAAGGUUCUUCUAAGGACCACCCAUCAACAGCUCGCAGUCAAG | 2.79 ± 0.124 log2 fold change
16 | consensus (structured_RNA) RNA: GGUCACGUCUCAAUCAACUCCCAAAGGCUCUUCUGAGAGCCACCCAUCAACAGCUCGCAGUCAAG | 2.5 ± 0.154 log2 fold change
17 | consensus (structured_RNA) RNA: GGUCACGUCUCAAUCAACUCCCAAAGGUUCUUUUCAGGGCCACCCAUCAACAGCUCGCAGUCAAG | 2.49 ± 0.153 log2 fold change
18 | consensus (structured_RNA) RNA: GGUCACGUCUCAAUCAACUCCCAAAGGCUCUUUUGAGAGCCACCCAUCAACAGCUCGCAGUCAAG | 2.84 ± 0.154 log2 fold change
19 | consensus (structured_RNA) RNA: GGUCACGUCUCAAUCAACUCCCAAAGGUUUUUUUUAAAACCACCCAUCAACAGCUCGCAGUCAAG | 2.51 ± 0.271 log2 fold change
20 | consensus (structured_RNA) RNA: GGUCACGUCUCAAUCAACUCCCAAAGGCUUUUUUUAAGGCCACCCAUCAACAGCUCGCAGUCAAG | 2.7 ± 0.125 log2 fold change
21 | consensus (structured_RNA) RNA: GGUCACGUCUCAAUCAACUCCCAAAGGCUUUUCUAAAGGCCACCCAUCAACAGCUCGCAGUCAAG | 2.99 ± 0.126 log2 fold change
22 | consensus (structured_RNA) RNA: GGUCACGUCUCAAUCAACUCCCAAAGGUUCUUCUUAGAACCACCCAUCAACAGCUCGCAGUCAAG | 2.63 ± 0.139 log2 fold change

Row | Binder | binding signal
23 | consensus (structured_RNA) RNA: GGUCACGUCUCAAUCAACUCCCAAAGGCCUUUUUAAAGGCCACCCAUCAACAGCUCGCAGUCAAG | 3.68 ± 0.122 log2 fold change
24 | consensus (structured_RNA) RNA: GGUCACGUCUCAAUCAACUCCCAAAGGUCCUUUUGAGGGCCACCCAUCAACAGCUCGCAGUCAAG | 2.63 ± 0.152 log2 fold change
25 | consensus (structured_RNA) RNA: GGUCACGUCUCAAUCAACUCCCAAAGGUUCUUUUCAGAGCCACCCAUCAACAGCUCGCAGUCAAG | 2.98 ± 0.121 log2 fold change
26 | consensus (structured_RNA) RNA: GGUCACGUCUCAAUCAACUCCCAAAGGCUUUUCUUAAGGCCACCCAUCAACAGCUCGCAGUCAAG | 2.45 ± 0.137 log2 fold change
27 | consensus (structured_RNA) RNA: GGUCACGUCUCAAUCAACUCCCAAAGGUUUUUCUAAAAGCCACCCAUCAACAGCUCGCAGUCAAG | 2.61 ± 0.133 log2 fold change
28 | consensus (structured_RNA) RNA: GGUCACGUCUCAAUCAACUCCCAAAGGUUCUUCUCAGAGCCACCCAUCAACAGCUCGCAGUCAAG | 2.76 ± 0.132 log2 fold change
29 | consensus (structured_RNA) RNA: GGUCACGUCUCAAUCAACUCCCAAAGGUUCUUUUAAGGACCACCCAUCAACAGCUCGCAGUCAAG | 2.99 ± 0.127 log2 fold change
30 | consensus (structured_RNA) RNA: GGUCACGUCUCAAUCAACUCCCAAAGGUCCUUCUUAGGGCCACCCAUCAACAGCUCGCAGUCAAG | 2.76 ± 0.147 log2 fold change
31 | consensus (structured_RNA) RNA: GGUCACGUCUCAAUCAACUCCCAAAGGUUCUUCUAAGAGCCACCCAUCAACAGCUCGCAGUCAAG | 2.77 ± 0.139 log2 fold change
32 | consensus (structured_RNA) RNA: GGUCACGUCUCAAUCAACUCCCAAAGGUCUUUUUCAAGACCACCCAUCAACAGCUCGCAGUCAAG | 3.61 ± 0.112 log2 fold change
33 | consensus (structured_RNA) RNA: GGUCACGUCUCAAUCAACUCCCAAAGGUUUUUCUCAAAACCACCCAUCAACAGCUCGCAGUCAAG | 2.81 ± 0.12 log2 fold change
34 | consensus (structured_RNA) RNA: GGUCACGUCUCAAUCAACUCCCAAAGGUUCUUCUAAGGGCCACCCAUCAACAGCUCGCAGUCAAG | 2.42 ± 0.134 log2 fold change
35 | consensus (structured_RNA) RNA: GGUCACGUCUCAAUCAACUCCCAAAGGUCCUUCUGAGGACCACCCAUCAACAGCUCGCAGUCAAG | 2.83 ± 0.137 log2 fold change
36 | consensus (structured_RNA) RNA: GGUCACGUCUCAAUCAACUCCCAAAGGCUCUUCUUAGGGCCACCCAUCAACAGCUCGCAGUCAAG | 2.44 ± 0.146 log2 fold change
37 | consensus (structured_RNA) RNA: GGUCACGUCUCAAUCAACUCCCAAAGGUUUUUUUAAAAGCCACCCAUCAACAGCUCGCAGUCAAG | 2.53 ± 0.247 log2 fold change
38 | consensus (structured_RNA) RNA: GGUCACGUCUCAAUCAACUCCCAAAGGUUCUUUUUAGAACCACCCAUCAACAGCUCGCAGUCAAG | 2.84 ± 0.113 log2 fold change
39 | consensus (structured_RNA) RNA: GGUCACGUCUCAAUCAACUCCCAAAGGCUUUUUUGAAAGCCACCCAUCAACAGCUCGCAGUCAAG | 2.83 ± 0.141 log2 fold change
40 | consensus (structured_RNA) RNA: GGUCACGUCUCAAUCAACUCCCAAAGGUUCUUUUAAGGGCCACCCAUCAACAGCUCGCAGUCAAG | 2.44 ± 0.142 log2 fold change
41 | consensus (structured_RNA) RNA: GGUCACGUCUCAAUCAACUCCCAAAGGCUUUUUUUAAAGCCACCCAUCAACAGCUCGCAGUCAAG | 2.93 ± 0.199 log2 fold change
42 | consensus (structured_RNA) RNA: GGUCACGUCUCAAUCAACUCCCAAAGGUUUUUUUAAAAACCACCCAUCAACAGCUCGCAGUCAAG | 2.88 ± 0.264 log2 fold change
43 | consensus (structured_RNA) RNA: GGUCACGUCUCAAUCAACUCCCAAAGGUUCUUUUAAGAGCCACCCAUCAACAGCUCGCAGUCAAG | 2.97 ± 0.121 log2 fold change
44 | consensus (structured_RNA) RNA: GGUCACGUCUCAAUCAACUCCCAAAGGUUCUUUUUAGGACCACCCAUCAACAGCUCGCAGUCAAG | 2.58 ± 0.123 log2 fold change

Reference: publication PMC5892938, “SARNAclust: Semi-automatic detection of RNA protein binding motifs from immunoprecipitation data”
